Data on 91 sequences can be found in the supplement of paper PMC9112550, “Optimization of the antimicrobial peptide Bac7 by deep mutational scanning” (BMC Biology, 2022).

In this data set the test system is Escherichia coli TOP10. Kind of data set: shrunken log2 fold change of peptide-encoding DNA abundance (4.5 h post-induction vs induction); higher = less antimicrobial activity (less host growth inhibition). The note with it: time post-induction: 4.5 h; library: site-saturation at positions 5, 18, 19, 20.
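Note: peptides expressed intracellularly from a pBAD plasmid library in pooled LB shake-flask culture, induced with 0.3% L-arabinose, DNA abundance read by NGS, three biological replicates, DESeq2 with apeglm shrinkage.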

For RRIRLRPPRLPRPRPRPPAPPRP, the “shrunken log2 fold change” value came to 0.789.
With RRIRNRPPRLPRPRPRPRVMPRP, the “shrunken log2 fold change” value is 0.0236.
As for RRIRYRPPRLPRPRPRPESNPRP, the “shrunken log2 fold change” value is -0.23.
The same measure for RRIRIRPPRLPRPRPRPWSTPRP: -0.358; for RRIRNRPPRLPRPRPRPYMGPRP: -1.97; for RRIRHRPPRLPRPRPRPAGMPRP: -0.411.
The figure for RRIRVRPPRLPRPRPRPGWIPRP is 0.486; for RRIRIRPPRLPRPRPRPANRPRP it is -0.159; for RRIRKRPPRLPRPRPRPNWWPRP it is -0.382.
Take RRIRWRPPRLPRPRPRPTRFPRP: the “shrunken log2 fold change” value worked out at 0.286.
The figure for RRIRYRPPRLPRPRPRPISEPRP is -0.0398; for RRIRKRPPRLPRPRPRPHTGPRP it is -0.0786; for RRIRIRPPRLPRPRPRPNGSPRP it is 0.0061.
For RRIRIRPPRLPRPRPRPYKRPRP, the “shrunken log2 fold change” value is -0.0487.
The figure for RRIRERPPRLPRPRPRPWDSPRP is 0.0192.
The figure for RRIRWRPPRLPRPRPRPWMDPRP is -0.0803; for RRIRPRPPRLPRPRPRPPNCPRP it is 0.215; for RRIRIRPPRLPRPRPRPWCDPRP it is -0.769.
For the sequence RRIRSRPPRLPRPRPRPISPPRP, the “shrunken log2 fold change” value is -0.402.
The same measure for RRIRRRPPRLPRPRPRPPYFPRP: 0.442; for RRIRTRPPRLPRPRPRPQNLPRP: -0.135; for RRIRNRPPRLPRPRPRPLHLPRP: -0.59.
The same measure for RRIRIRPPRLPRPRPRPYFAPRP: -0.694.
The same measure for RRIRCRPPRLPRPRPRPCRFPRP: -0.178; for RRIRKRPPRLPRPRPRPQMRPRP: 0.292.
For the sequence RRIRLRPPRLPRPRPRPNHYPRP, the “shrunken log2 fold change” value is -0.505.
The figure for RRIRLRPPRLPRPRPRPCHEPRP is 0.0247; for RRIRYRPPRLPRPRPRPPMAPRP it is 0.298.
The same measure for RRIRSRPPRLPRPRPRPIGPPRP: -0.0999.
The figure for RRIRLRPPRLPRPRPRPTRVPRP is 0.389.
RRIRDRPPRLPRPRPRPQFWPRP: the “shrunken log2 fold change” value came out at 0.345.
The figure for RRIRNRPPRLPRPRPRPLTPPRP is 0.136; for RRIRSRPPRLPRPRPRPSPVPRP it is -0.0362.
Turning to RRIRFRPPRLPRPRPRPGNYPRP, the “shrunken log2 fold change” value was -0.401.
The same measure for RRIRRRPPRLPRPRPRPITDPRP: -0.101; for RRIRMRPPRLPRPRPRPAGWPRP: 1.37; for RRIRARPPRLPRPRPRPYLTPRP: -0.655.
The figure for RRIRYRPPRLPRPRPRPIATPRP is 0.0782; for RRIRGRPPRLPRPRPRPSEKPRP it is 1.49; for RRIRQRPPRLPRPRPRPSHSPRP it is -0.102.
RRIRPRPPRLPRPRPRPGPWPRP: the “shrunken log2 fold change” value turned out to be 0.0326.
For the sequence RRIRIRPPRLPRPRPRPKNSPRP, the “shrunken log2 fold change” value is -0.503.
In the case of RRIRDRPPRLPRPRPRPRNHPRP, the “shrunken log2 fold change” value was -0.641.
For the sequence RRIRGRPPRLPRPRPRPHADPRP, the “shrunken log2 fold change” value amounted to 1.68.
For RRIRNRPPRLPRPRPRPFPSPRP, the “shrunken log2 fold change” value is -0.0692.
Turning to RRIRWRPPRLPRPRPRPQMWPRP, the “shrunken log2 fold change” value stood at 0.369.
Consider RRIRLRPPRLPRPRPRPRWYPRP, for which the “shrunken log2 fold change” value was -0.206.
The same measure for RRIRHRPPRLPRPRPRPVYCPRP: -0.49; for RRIRPRPPRLPRPRPRPQIAPRP: 0.115.
In the case of RRIRNRPPRLPRPRPRPAFMPRP, the “shrunken log2 fold change” value was found to be 0.0417.
The same measure for RRIRTRPPRLPRPRPRPHRYPRP: -0.604; for RRIRPRPPRLPRPRPRPTAYPRP: -0.203.
The figure for RRIRGRPPRLPRPRPRPFNIPRP is -0.199; for RRIRQRPPRLPRPRPRPNFQPRP it is -0.198.
In the case of RRIRTRPPRLPRPRPRPNVLPRP, the “shrunken log2 fold change” value was -0.0117.
The same measure for RRIRRRPPRLPRPRPRPWHPPRP: 0.0925.
The figure for RRIRCRPPRLPRPRPRPCNQPRP is -0.412.
The same measure for RRIRFRPPRLPRPRPRPEYSPRP: 5.84e-05; for RRIRIRPPRLPRPRPRPSEKPRP: -0.195; for RRIRSRPPRLPRPRPRPENEPRP: -0.0857.
Consider RRIRTRPPRLPRPRPRPWKMPRP, for which the “shrunken log2 fold change” value is -0.0793.
The same measure for RRIRPRPPRLPRPRPRPLVQPRP: -0.0898; for RRIRARPPRLPRPRPRPCDNPRP: -0.273.
For the sequence RRIRYRPPRLPRPRPRPIRHPRP, the “shrunken log2 fold change” value is 0.0879.
The same measure for RRIRLRPPRLPRPRPRPTKRPRP: 0.00619; for RRIRPRPPRLPRPRPRPVNRPRP: -0.0842; for RRIRERPPRLPRPRPRPAYRPRP: -0.429.
The figure for RRIRARPPRLPRPRPRPRANPRP is 0.694; for RRIRGRPPRLPRPRPRPYMNPRP it is -0.23.
The same measure for RRIRERPPRLPRPRPRPCAPPRP: -0.215; for RRIRFRPPRLPRPRPRPMMRPRP: 0.126; for RRIRERPPRLPRPRPRPRIRPRP: 0.0747.
Turning to RRIRGRPPRLPRPRPRPSTTPRP, the “shrunken log2 fold change” value was 0.875.
The figure for RRIRQRPPRLPRPRPRPVQEPRP is 0.00554.
Consider RRIRVRPPRLPRPRPRPTVEPRP, for which the “shrunken log2 fold change” value came to 0.195.
The figure for RRIRFRPPRLPRPRPRPQWDPRP is -0.272; for RRIRKRPPRLPRPRPRPYNMPRP it is -0.352; for RRIRTRPPRLPRPRPRPGQTPRP it is -0.0115.
In the case of RRIRTRPPRLPRPRPRPQQGPRP, the “shrunken log2 fold change” value was -0.238.
The same measure for RRIRSRPPRLPRPRPRPGTKPRP: 0.108; for RRIRMRPPRLPRPRPRPGHRPRP: 1.35.
As for RRIRMRPPRLPRPRPRPRNVPRP, the “shrunken log2 fold change” value worked out at 0.29.
The same measure for RRIRGRPPRLPRPRPRPKDAPRP: 0.432.
The same measure for RRIRARPPRLPRPRPRPIALPRP: 0.0719; for RRIRYRPPRLPRPRPRPIVMPRP: -0.254; for RRIRCRPPRLPRPRPRPIFRPRP: -0.013.
For RRIRWRPPRLPRPRPRPFNAPRP, the “shrunken log2 fold change” value is -0.342.
The same measure for RRIRPRPPRLPRPRPRPSEAPRP: -0.0726.
With RRIRTRPPRLPRPRPRPCEIPRP, the “shrunken log2 fold change” value was 0.0393.
Consider RRIRARPPRLPRPRPRPCDQPRP, for which the “shrunken log2 fold change” value is -0.00754.
On to RRIRERPPRLPRPRPRPETVPRP, for which the “shrunken log2 fold change” value was determined as 0.0162.
